This note sets out measurements from US7109170B2, “Region of factor IXa protease domain that interacts with factor VIIIa and methods therefor” (Saint Louis University, priority 1999, dated 2006).

The target in the test is T1, factor VIIIa (Homo sapiens, UniProt P00451).
T1 construct: purchased Dr. Leon Hoyer (American Red Cross, Rockville, Md.)
T1 sequence (P00451 20-759 limits assumed): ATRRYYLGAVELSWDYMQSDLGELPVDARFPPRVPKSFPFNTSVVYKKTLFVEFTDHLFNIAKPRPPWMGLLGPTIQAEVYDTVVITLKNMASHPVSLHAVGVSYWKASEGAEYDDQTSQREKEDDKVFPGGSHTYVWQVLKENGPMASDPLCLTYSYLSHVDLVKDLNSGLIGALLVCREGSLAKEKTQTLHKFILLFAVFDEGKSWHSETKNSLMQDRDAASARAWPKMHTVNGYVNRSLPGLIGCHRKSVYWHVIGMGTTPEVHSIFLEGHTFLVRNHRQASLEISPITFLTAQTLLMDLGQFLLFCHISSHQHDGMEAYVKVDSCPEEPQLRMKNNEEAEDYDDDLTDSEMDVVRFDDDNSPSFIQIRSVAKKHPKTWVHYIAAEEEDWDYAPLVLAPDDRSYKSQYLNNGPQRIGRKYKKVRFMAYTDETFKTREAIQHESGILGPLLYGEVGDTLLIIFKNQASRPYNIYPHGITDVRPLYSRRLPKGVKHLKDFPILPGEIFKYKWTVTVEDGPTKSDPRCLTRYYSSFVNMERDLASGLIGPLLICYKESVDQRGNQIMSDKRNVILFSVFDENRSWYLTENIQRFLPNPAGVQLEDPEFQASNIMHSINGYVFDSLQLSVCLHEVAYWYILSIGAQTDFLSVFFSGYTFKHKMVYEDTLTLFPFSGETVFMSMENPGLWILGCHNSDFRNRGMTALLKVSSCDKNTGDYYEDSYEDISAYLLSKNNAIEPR
T1 sequence (P00451 1668-2351 limits assumed): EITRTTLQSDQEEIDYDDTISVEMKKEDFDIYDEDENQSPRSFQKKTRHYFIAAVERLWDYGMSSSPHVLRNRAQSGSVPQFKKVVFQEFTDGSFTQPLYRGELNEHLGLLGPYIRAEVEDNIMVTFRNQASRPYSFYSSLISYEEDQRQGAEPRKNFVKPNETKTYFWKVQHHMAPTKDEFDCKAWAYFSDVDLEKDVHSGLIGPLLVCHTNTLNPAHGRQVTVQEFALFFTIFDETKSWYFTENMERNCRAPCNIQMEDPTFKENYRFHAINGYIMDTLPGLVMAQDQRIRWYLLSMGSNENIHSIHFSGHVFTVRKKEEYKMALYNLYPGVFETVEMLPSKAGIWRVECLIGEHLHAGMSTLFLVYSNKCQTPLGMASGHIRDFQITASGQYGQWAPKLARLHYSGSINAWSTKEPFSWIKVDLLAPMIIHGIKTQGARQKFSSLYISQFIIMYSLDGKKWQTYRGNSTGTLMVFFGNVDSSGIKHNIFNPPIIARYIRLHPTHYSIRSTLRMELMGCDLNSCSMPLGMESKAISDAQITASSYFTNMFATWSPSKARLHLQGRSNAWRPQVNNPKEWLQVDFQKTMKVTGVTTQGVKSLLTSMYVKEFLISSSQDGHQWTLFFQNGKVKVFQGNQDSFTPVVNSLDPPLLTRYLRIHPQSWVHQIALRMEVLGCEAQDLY
Nature of the test: inhibition of Xa generation by active site-blocked (DEGR) IXa proteins, absence of phospholipid (Kd,app for VIIIa). It counts as biochemical. As to the method: Apparent Kds of factor VIIIa binding to various active site-blocked factor IXa proteins were determined from inhibition experiments as detailed in Mathur et al., 1997, supra. […] Reactions were carried out for 2 min and the rates of factor X activation were measured as outlined above.
Various DEGR-ck-inhibited factor IXa proteins were prepared for these experiments as follows. IXNP, IXWT, and each mutant factor IX at 200 μg/ml was activated by factor XIa (2 μg/ml) for 90 min. in TBS, pH 7.4 (0.05 M Tris, 0.15 M NaCl, pH 7.4) containing 5 mM Ca^2+.
Enzymol. 74, 481–508 given below:
[formula] where y is the rate of Xa formation in the presence of a given concentration of DEGR-IXa protein represented by x, a is the maximum rate of Xa formation in the absence of DEGR-IXa, and s is the slope factor. Each point was weighted equally and the data were fitted to Equation 1 using the nonlinear regression analysis program obtained from Erithacus Software (GraFit). […] To obtain the Kd,app values for the interaction of DEGR-IXa proteins with factor VIIIa, the following equation was used, as described by Cheng and Prusoff, 1973, Biochem. Pharmacol. 22, 3099–3108 and further discussed by Craig, 1993, Trends Pharmacol. Sci. 6, 68–71.

For “IXaV331A: activated factor IX mutant V331A”, the “fold-reduction in affinity for factor VIIIa compared with DEGR-IXaWT” value (absence of phospholipid) is given as 7 fold. For the same substance, under “active site-blocked (DEGR) IXa proteins, no phospholipid, read-out: Kd, app for interaction with factor VIIIa, PL-minus system”, the Kd stood at 1350 ± 310 nM.
